Experimental data: US20260176653

Target: T1, Bcl-TEV IRES iADAR (tandem-dimer MCP, BAD peptide fused to the N-terminus of ADAR2-DD(E488Q & F697Y), TEV cut site, Bcl-xL, TagBFP)
T1 chain: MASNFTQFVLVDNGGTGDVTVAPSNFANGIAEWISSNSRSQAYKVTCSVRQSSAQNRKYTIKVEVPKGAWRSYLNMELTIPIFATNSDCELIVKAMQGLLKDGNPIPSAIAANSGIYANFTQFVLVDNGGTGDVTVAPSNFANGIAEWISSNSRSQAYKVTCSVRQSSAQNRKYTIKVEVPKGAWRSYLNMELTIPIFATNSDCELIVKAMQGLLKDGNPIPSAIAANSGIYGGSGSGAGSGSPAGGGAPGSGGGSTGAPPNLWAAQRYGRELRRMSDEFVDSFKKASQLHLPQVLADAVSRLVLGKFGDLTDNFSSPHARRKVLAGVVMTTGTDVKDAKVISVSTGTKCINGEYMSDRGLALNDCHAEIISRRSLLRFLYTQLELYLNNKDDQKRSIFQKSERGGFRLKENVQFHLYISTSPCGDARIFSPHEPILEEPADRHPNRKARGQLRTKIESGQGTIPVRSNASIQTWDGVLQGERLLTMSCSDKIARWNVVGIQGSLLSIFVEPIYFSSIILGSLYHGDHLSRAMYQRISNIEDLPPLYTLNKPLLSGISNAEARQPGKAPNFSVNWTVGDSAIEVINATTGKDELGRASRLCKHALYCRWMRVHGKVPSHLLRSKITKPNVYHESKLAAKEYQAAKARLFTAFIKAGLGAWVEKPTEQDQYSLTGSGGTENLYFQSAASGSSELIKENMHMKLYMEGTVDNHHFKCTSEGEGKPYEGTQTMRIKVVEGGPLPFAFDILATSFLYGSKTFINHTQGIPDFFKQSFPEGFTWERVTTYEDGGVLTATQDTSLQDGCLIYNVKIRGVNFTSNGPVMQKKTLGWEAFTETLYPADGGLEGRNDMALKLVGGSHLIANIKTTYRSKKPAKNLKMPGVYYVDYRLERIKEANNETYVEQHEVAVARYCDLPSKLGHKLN

B1: TEV Protease (protein)
chain: MGESLFKGPRDYNPISSTICHLTNESDGHTTSLYGIGFGPFIITNKHLFRRNNGTLLVQSLHGVFKVKNTTTLQQHLIDGRDMIIIRMPKDFPPFPQKLKFREPQREERICLVTTNFQTKSMSSMVSDTSCTFPSSDGIFWKHWIQTKDGQCGSPLVSTRDGFIVGIHSASNFTNTNNYFTSVPKNFMELLTNQEAQQWVSGWRLNADSVLWGGHKVFMVKPEEPFQPVKEATQL
Question: B1 was tested. Which “fold change of the mean RFU (mNeonGreen-to-mCherry), Bcl-TEV IRES iADAR co-transfected with TEV protease” value did it give?
Answer: The value was 17× for TEV protease.
